The labels stand for the following.
B1: PRT-516 (protein)
chain: MITSVWTKGVTPPTDFIKGEDVFHAPYKAGQGWYDITKAFDGGDDLLCGAATAGNMLHWWFDQNKEEIEAYLKKHPEKQKIMFGDQELLDVRKVINTKDSQTNSALFNYFKDKAFPNLSARRLGVMPDLVLDMFINGYYLNVYKTQTTDVNRTYQTKDRRGGIFDAVFTRGDQSKLLTERHDLKNKTLNEISQLIKQELTEGKALGLSHTYANVRINHVINLWGADFDAEGNLEAIYVTDSDSNASIGMKKYFVGVNSAGKVAISAKEIKEDNIGAQVLGLFTLSTGQDIWNQTNLEHHHHHH
B2: PRT-509 (protein)
chain: MITSVWTKGVTPPTDFRKIVDGNIAYYHAPYKAGQGWYDITKTFNGKDDLLCGAATAGNMLHWWFDQNKEEIEAYLKKHPEKQKIMFGDQELLDVRKVINTKDSQTNSALFNYFKDKAFPNLSARRLGVMPDLVLDMFINGYYLNVYKTQTTDVNRTYQTKDRRGGIFDAVFTRGDQSKLLTERHDFKEKTLKEISDLIKQELTEGKALGLSHTYANVRINHVINLWGADFDSNGNLEAIYVTDSDSNASIGMKKYFVGVNSAGKVAISAKEIKEDNIGAQVLGLFTLSTGQDIWNQTNLEHHHHHH
B3: PRT-687 (protein)
chain: MQITSVWTKGVTPLTPEQFRYNNEDVIHAPYKPHQGWYDITKTFNGKDNLLCGAATAGNMLHWWFDQNKTEIEAYLKKYPEKQKIIFNNQKLFDLRKAINTKDSQTNSALFNYFRDKAFPNLSARQLGVMPDLVLDMFINGYYLNVFKTQSTDVNRPYQTRDKRGGIFDHVFGRGDQTTLLTARHDLKNKTLNEISQIIKQELSEGKALALSHTYANVSISHVINLWGADFNAEGNLEAIYVTDSDANAKIGMKKYYVGKNAHGKVAISAKKIEGENIGAQVLGLFTLSSGKDIWQKLSLEHHHHHH
B4: PRT-635 (protein)
chain: MQITSVWTKGVTPLTPDQFTNQGEDVIHAPYTPNQGWYDITKAFDGKDNLLCGAATAGNMLHWWFDQNKTEIEAYLSKHPEKQKIIFNNQELFDLKAAIDTKDSQTNSQLFNYFRDKAFPNLSARQLGVMPDLVLDMFINGYYLNVFKTQSTDVNRPYQDKDKRGGIFDAVFTRGDQTTLLTARHDLKNKGLNDISTIIKQELTEGKALALSHTYANVSISHVINLWGADFNAEGNLEAIYVTDSDANASIGMKKYFVGINAHGHVAISAKKIEGENIGAQVLGLFTLSSGKDIWQKLSLEHHHHHH
B5: PRT-497 (protein)
chain: MVTSVWTKGVTPPTDFRKIVDGNIAYYHAPYKAGQGWYDITKTFNGKDDLLCGAATAGNMLHWWFDQNKEYIEAYLKKHPEKQKIMFGDQELLDVRKAINTKGSQKNSELFNYFRDKAFPNLSARRLGVMPDLVLDMFINGYYLNVTKTQTTDVNRTYQEKDKRGGIFDAVFTRGDQSKLLTSRHDFKEKGLKEISDLIKQELTEGKALGLSHTYANVRINHVINLWGADFDSDGNLKAIYVTDSDSNASIGMKKYFVGVNSAGKVAISAKEIKEDNIGAQVLGLFTLSTGQDIWNQTNLEHHHHHH
B6: PRT-643 (protein)
chain: MQITSVWTKGVTPLTPEQFRYNNEDVIHAPYLAHQGWYDITKAFDGKDNLLCGAATAGNMLHWWFDQNKTEIEAYLSKHPEKQKIIFNNQELFDLKAAIDTKDSQTNSQLFNYFRDKAFPNLSARQLGVMPDLVLDMFINGYYLNVFKTQSTDVNRPYQDKDKRGGIFDAVFTRGDQTTLLTARHDLKNKGLNDISTIIKQELTEGRALALSHTYANVSISHVINLWGADFNAEGNLEAIYVTDSDANASIGMKKYKVGYNKDGRVAISAYKIEGENIGAQVLGLFTLSSGKDIWQKLSLEHHHHHH
B7: PRT-624 (protein)
chain: MQITSVWTKGVTPLTPEQFRYNNEDVIHAPYLAHQGWYDITKAFDGKDNLLCGAATAGNMLHWWFDQNKTEIEAYLSKHPEKQKIIFNNQELFDLKAAIDTKDSQTNSQLFNYFRDKAFPNLSARQLGVMPDLVLDMFINGYYLNVFKTQSTDVNRDYDDKDKRGGIFDDVFGKGDQTTLLTARHDLKNKGLNDISTIIKQELTEGRALALSHTYANVSISHVINLWGADFNAEGNLEAIYVTDSDANASIGMKKYFVGINAHGHVAISAKKIEGENIGAQVLGLFTLSSGKDIWQKLSLEHHHHHH
B8: PRT-646 (protein)
chain: B7 chain with D157P, D159Q, D170A, G173T, K174R, A183E, R184T, H185T, K188Y, N189G
B9: PRT-495 (protein)
chain: MVTSVWTKGVTPPTDFIKGEDVFHAPYKAGQGWYDITKAFDGGDDLLCGAATAGNMLHWWFDQNKEYIEAYLKKHPEKQKIMFGDQELLDVRKAINTKGSQKNSELFNYFRDKAFPNLSARRLGVMPDLVLDMFINGYYLNVTKTQTTDVNRTYQEKDKRGGIFDAVFTRGDQSKLLTSRHDFKEKGLKEISDLIKQELTEGKALGLSHTYANVRINHVINLWGADFDSDGNLKAIYVTDSDSNASIGMKKYFVGVNSAGKVAISAKEIKEDNIGAQVLGLFTLSTGQDIWNQTNLEHHHHHH
B10: PRT-490 (protein)
chain: MVTSVWTKGVTPPTDFIYGEDVLHAPYKAGQGWYDITKTFNGKDNLLCGAATAGNMLHWWFDQNKEQIENYLKKHPEKQKIIFNNQELFDLKAAIDTKDSQLDSKLFEYFKEKAFPYLSTKHLGVFPDHVIDMFINGYRLSLTNHGPTPVKRGSKDKRGGIFDAVFTRGVQSKLLTNRHDFKEKTLKEISDLIKQELTEGKALGISHTYANVRINHVINLWGADFDAEGNLEAIYVTDSDTNASIGMKKYFVGVNSNGKVAISAKEIEEDNIGAQVLGLFTLSTGQDIWNQTNLEHHHHHH
B11: PRT-461 (protein)
chain: MVTSVWTKGVTPPTDFRKIVDGNIAYYHAPYKAGQGWYDITKTFNGKDDLLCGAATAGNMLHWWFDQNKDQIERYLKEHPEKQKINFNGEQMFDVKEAIDTKDSQTDSKLFEYFKEKAFPYLSTKHLGVFPDHVLDMFINGYRLSLTNHGPTPVKEGSKDPRGGIFDAVFTRGDQSKLLTSRHDFKEKTLKEISDLIKQELTEGKALGLSHTYANVRINHVINLWGADFDSEGNLKAIYVTDSDSNASIGMKKYFVGVNSAGKVAISAKEIKEDNIGAQVLGLFTLSTGQDIWNQTNLEHHHHHH
B12: PRT-475 (protein)
chain: MVTSVWTKGVTPPTNFRKIVDGNIAYYHAPYVANQGWYDITKTFNGKDDLLCGAATAGNMLHWWFDQNKEQIENYLKKHPEKQKINFNGEQMFDVKEAIDTKDSQLDSKLFEYFKEKAFPYLSTKHLGVFPDHVIDMFINGYRLSLTNHGPTPVKRGSKDPRGGIFDAVFTRGDQSKLLTNRHDLKNKTLKEISDLIKQELTEGKALGISHTYANVRINHVINLWGADFDAEGNLEAIYVTDSDSNASIGMKKYFVGVNSNGKVAISAKEIEEDNIGAQVLGLFTLSTGQDIWNQTNLEHHHHHH
B13: PRT-469 (protein)
chain: MVTSVWTKGVTPPTDFIKGEDVFHAPYKAGQGWYDITKAFDGGDDLLCGAATAGNMLHWWFDQNKDQIERYLKEHPEKQKINFNGEQMFDVKEAIDTKDSQTNSELFNYFKEKAFPYLSTKHLGVFPDHVLDMFINGYRLSLTNHGPTPVKRQEKDPRGGIFDAVFGRGDQTKLLTSRHDLKNKTLKEISDLIKQELTEGKALGLSHTYANVRINHVINLWGADFDSEGNLKAIYVTDSDSNASIGMKKYFVGVNSAGKVAISAKEIKEDNIGAQVLGLFTLSTGQKIWNKTNLEHHHHHH

Changes are numbered by the printed parent chain.

This series deals with pooled human IgG (human IgG1, 2, 3 and 4).
Consider B1, for which the Enzyme Activity Endpoint Assay (purified): Fab′2 amounted to 16 ng/µL, the Enzyme Activity Endpoint Assay (purified): Fc is 23 ng/µL, the Enzyme Activity Endpoint Assay (purified): IgG stood at 0 ng/µL and the Enzyme Activity Endpoint Assay (purified): scIgG is 0 ng/µL.

The protein B2 registered an Enzyme Activity Endpoint Assay (purified): Fab′2 of 21 ng/µL, an Enzyme Activity Endpoint Assay (purified): Fc of 26 ng/µL, an Enzyme Activity Endpoint Assay (purified): IgG of 0 ng/µL and an Enzyme Activity Endpoint Assay (purified): scIgG of 0 ng/µL.

The protein B3 showed an Enzyme Activity Endpoint Assay (purified): Fab′2 of 738 ng/µL, an Enzyme Activity Endpoint Assay (purified): Fc of 420 ng/µL, an Enzyme Activity Endpoint Assay (purified): IgG of 0 ng/µL and an Enzyme Activity Endpoint Assay (purified): scIgG of 295 ng/µL.

In the case of B4, the Enzyme Activity Endpoint Assay (purified): Fab′2 was found to be 0 ng/µL, the Enzyme Activity Endpoint Assay (purified): Fc is 0 ng/µL, the Enzyme Activity Endpoint Assay (purified): IgG was determined as 0 ng/µL and the Enzyme Activity Endpoint Assay (purified): scIgG came out at 0 ng/µL.

The protein B5 showed an Enzyme Activity Endpoint Assay (purified): Fab′2 of 0 ng/µL, an Enzyme Activity Endpoint Assay (purified): Fc of 0 ng/µL, an Enzyme Activity Endpoint Assay (purified): IgG of 0 ng/µL and an Enzyme Activity Endpoint Assay (purified): scIgG of 0 ng/µL.

In turn, B6 had an Enzyme Activity Endpoint Assay (purified): Fab′2 of 664 ng/µL, an Enzyme Activity Endpoint Assay (purified): Fc of 409 ng/µL, an Enzyme Activity Endpoint Assay (purified): IgG of 33 ng/µL and an Enzyme Activity Endpoint Assay (purified): scIgG of 226 ng/µL.

The protein B7 gave an Enzyme Activity Endpoint Assay (purified): Fab′2 of 89 ng/µL, an Enzyme Activity Endpoint Assay (purified): Fc of 251 ng/µL, an Enzyme Activity Endpoint Assay (purified): IgG of 96 ng/µL and an Enzyme Activity Endpoint Assay (purified): scIgG of 626 ng/µL.

B8: the Enzyme Activity Endpoint Assay (purified): Fab′2 was found to be 582 ng/µL, the Enzyme Activity Endpoint Assay (purified): Fc was 435 ng/µL, the Enzyme Activity Endpoint Assay (purified): IgG worked out at 39 ng/µL and the Enzyme Activity Endpoint Assay (purified): scIgG worked out at 635 ng/µL.

For B9, the Enzyme Activity Endpoint Assay (purified): Fab′2 stood at 0 ng/µL, the Enzyme Activity Endpoint Assay (purified): Fc was 37 ng/µL, the Enzyme Activity Endpoint Assay (purified): IgG was 0 ng/µL and the Enzyme Activity Endpoint Assay (purified): scIgG was determined as 0 ng/µL.

B10 registered an Enzyme Activity Endpoint Assay (purified): Fab′2 of 73 ng/µL, an Enzyme Activity Endpoint Assay (purified): Fc of 243 ng/µL, an Enzyme Activity Endpoint Assay (purified): IgG of 166 ng/µL and an Enzyme Activity Endpoint Assay (purified): scIgG of 875 ng/µL.

Regarding B11, the Enzyme Activity Endpoint Assay (purified): Fab′2 turned out to be 399 ng/µL, the Enzyme Activity Endpoint Assay (purified): Fc is 309 ng/µL, the Enzyme Activity Endpoint Assay (purified): IgG worked out at 154 ng/µL and the Enzyme Activity Endpoint Assay (purified): scIgG came out at 298 ng/µL.

B12 displayed an Enzyme Activity Endpoint Assay (purified): Fab′2 of 1150 ng/µL, an Enzyme Activity Endpoint Assay (purified): Fc of 413 ng/µL, an Enzyme Activity Endpoint Assay (purified): IgG of 0 ng/µL and an Enzyme Activity Endpoint Assay (purified): scIgG of 0 ng/µL.

B13: the Enzyme Activity Endpoint Assay (purified): Fab′2 is 41 ng/µL, the Enzyme Activity Endpoint Assay (purified): Fc was determined as 139 ng/µL, the Enzyme Activity Endpoint Assay (purified): IgG was 50 ng/µL and the Enzyme Activity Endpoint Assay (purified): scIgG amounted to 248 ng/µL.
